Measurements published in FireProtDB (doi:10.1016/s0022-2836(03)00043-3).

B1: Cyclin-dependent kinase inhibitor 2A, P42771 (parent)
chain: MEPAAGSSMEPSADWLATAAARGRVEEVRALLEAGALPNAPNSYGRRPIQVMMMGSARVAELLLLHGAEPNCADPATLTRPVHDAAREGFLDTLVVLHRAGARLDVRDAWGRLPVDLAEELGHRDVARYLRAAAGGTRGSNHARIDAAEGPSDIPD

Variants of: B1
Settings: Homo sapiens, pH 8.5, CD, Tris 10 mM, reversible: yes, structure 1A5E, whole UniProt chain shown; for Tm / change of melting temperature, mutant - wild type (higher = more stable): Thermal; for ddG of mutation (higher = less stable) / denaturant m value / denaturant midpoint (higher = more stable) / unfolding free energy: 20 °C, Urea

| Variant | Tm | change of melting temperature, mutant - wild type (higher = more stable) | ddG of mutation (higher = less stable) | denaturant m value | denaturant midpoint (higher = more stable) | unfolding free energy |
| --- | --- | --- | --- | --- | --- | --- |
| A73E | 46.2 °C | 0.2 °C |  |  |  |  |
| W15D |  |  | -0.17 kcal/mol | 1.74 kcal/mol/M | 2.1 M | 3.52 kcal/mol |
| L37S | 50.3 °C | 4.3 °C | -0.71 kcal/mol | 1.82 kcal/mol/M | 2.4 M | 4.05 kcal/mol |
| V95K | 47 °C | 1 °C |  |  |  |  |
| R124D | 45.6 °C | -0.4 °C |  |  |  |  |
| W15D L37S L121R |  |  | -1.42 kcal/mol | 1.56 kcal/mol/M | 2.8 M | 4.77 kcal/mol |
| R128E | 47.6 °C | 1.6 °C |  |  |  |  |
| L65K | 47.2 °C | 1.2 °C |  |  |  |  |
| L121R | 50.4 °C | 4.4 °C | -0.66 kcal/mol | 1.61 kcal/mol/M | 2.4 M | 4 kcal/mol |
| T18R | 45 °C | -1 °C |  |  |  |  |
